Measured values as given in patent publication US20240270821A1, “GIP/GLP1/GCG TRI-RECEPTOR AGONISTS AND USES THEREOF” (priority 2023, published 2024).

B1: Example 59 (peptide)
chain: YXQGTFTSDFSXXLDKKAQXAFIEYLLEGGPSSGEPPPSEG
modifications: synthetic construct; SITE 2: note = 2-Aminoisobutyric Acid; SITE 12: note = L-ornithine; SITE 13: note = alpha-methyl-leucine; SITE 17: note = Lysine is chemically modified through conjugation of the epsilon-amino group of the Lysine side chain with (2-[2-(2-Amino-ethoxy)-ethoxy]-acetyl)-(gamma-Glu)
B2: Example 607 (peptide)
chain: YXQGTXTSDXSILLDKKAQXAFIEYLEEGGPSSGEPPPSGTGE
modifications: Aib, αMeF(2F), 4Pal; acylated K; C-terminal amide; synthetic construct; SITE 2: note = 2-Aminoisobutyric Acid; SITE 6: note = alpha-methyl-2-fluoro-L-phenylalanine; SITE 10: note = 3-(4-Pyridyl)-L-alanine; SITE 17: note = Lysine is chemically modified through conjugation of the epsilon-amino group of the Lysine side chain with (gamma-Glu)2-CO-(CH2)1
B3: Example 623 (peptide)
chain: YXQGTXTSDXSIXLDKKAQXAFIEYLEEGGPSSGAPPPSGEGE
modifications: C-terminal amide; lysine acylated with (γ-Glu)2-C18 diacid; synthetic construct; SITE 2: note = 2-Aminoisobutyric Acid; SITE 6: note = alpha-methyl-2-fluoro-L-phenylalanine; SITE 10: note = 3-(4-Pyridyl)-L-alanine; SITE 13: note = alpha-methyl-leucine; SITE 17: note = Lysine is chemically modified through conjugation of the epsilon-amino group of the Lysine
B4: Example 612 (peptide)
chain: YXQGTXTSDXSILLDKKAQXAFIEYLEEGGPSSGAPPPSGGEE
modifications: Aib, alpha-methyl-2F-Phe, 4Pal, lipidated Lys, amide; synthetic construct; SITE 2: note = 2-Aminoisobutyric Acid; SITE 6: note = alpha-methyl-2-fluoro-L-phenylalanine; SITE 10: note = 3-(4-Pyridyl)-L-alanine; SITE 17: note = Lysine is chemically modified through conjugation of the epsilon-amino group of the Lysine side chain with (gamma-Glu)2-CO-(CH2)1
B5: Example 626 (peptide)
chain: YXQGTXTSDXSIXLDKKAQXAFIEYLEEGGPSSGAPPPEGTGE
modifications: non-natural residues, (γGlu)2-diacid acylated Lys, C-terminal amide; synthetic construct; SITE 2: note = 2-Aminoisobutyric Acid; SITE 6: note = alpha-methyl-2-fluoro-L-phenylalanine; SITE 10: note = 3-(4-Pyridyl)-L-alanine; SITE 13: note = alpha-methyl-leucine; SITE 17: note = Lysine is chemically modified through conjugation of the epsilon-amino group of the Lysine
B6: Example 631 (peptide)
chain: YXQGTXTSDXSIXLDKKAQXAFIEYLAEGGPSSGEPPPSGSEE
modifications: non-natural residues; acylated Lys; C-terminal amide; synthetic construct; SITE 2: note = 2-Aminoisobutyric Acid; SITE 6: note = alpha-methyl-2-fluoro-L-phenylalanine; SITE 10: note = 3-(4-Pyridyl)-L-alanine; SITE 13: note = alpha-methyl-leucine; SITE 17: note = Lysine is chemically modified through conjugation of the epsilon-amino group of the Lysine
B7: Example 620 (peptide)
chain: YXQGTXTSDXSILLDKKAQXAFIEYLEEGGPSSGAPPPSGAGE
modifications: Aib, αMeF(2F), 4Pal; acylated K; C-terminal amide; synthetic construct; SITE 2: note = 2-Aminoisobutyric Acid; SITE 6: note = alpha-methyl-2-fluoro-L-phenylalanine; SITE 10: note = 3-(4-Pyridyl)-L-alanine; SITE 17: note = Lysine is chemically modified through conjugation of the epsilon-amino group of the Lysine side chain with (gamma-Glu)2-CO-(CH2)1
B8: Example 610 (peptide)
chain: YXQGTXTSDXSILLDKKAQXAFIEYLEEGGPSSGAPPPSGSEE
modifications: Aib, αMeF(2F), 4Pal; lysine acylated C18 diacid; amide; synthetic construct; SITE 2: note = 2-Aminoisobutyric Acid; SITE 6: note = alpha-methyl-2-fluoro-L-phenylalanine; SITE 10: note = 3-(4-Pyridyl)-L-alanine; SITE 17: note = Lysine is chemically modified through conjugation of the epsilon-amino group of the Lysine side chain with (gamma-Glu)2-CO-(CH2)1
B9: Example 633 (peptide)
chain: YXQGTXTSDXSIXLDKKAQXAFIEYLTEGGPSSGEPPPSGSEE
modifications: non-natural residues, C18 diacid acylation, C-terminal amide; synthetic construct; SITE 2: note = 2-Aminoisobutyric Acid; SITE 6: note = alpha-methyl-2-fluoro-L-phenylalanine; SITE 10: note = 3-(4-Pyridyl)-L-alanine; SITE 13: note = alpha-methyl-leucine; SITE 17: note = Lysine is chemically modified through conjugation of the epsilon-amino group of the Lysine
B10: Example 630 (peptide)
chain: YXQGTXTSDXSIXLDKKAQXAFIEYLEEGGPSSGEPPPSGSEE
modifications: non-natural residues; lipidated Lys; C-terminal amide; synthetic construct; SITE 2: note = 2-Aminoisobutyric Acid; SITE 6: note = alpha-methyl-2-fluoro-L-phenylalanine; SITE 10: note = 3-(4-Pyridyl)-L-alanine; SITE 13: note = alpha-methyl-leucine; SITE 17: note = Lysine is chemically modified through conjugation of the epsilon-amino group of the Lysine
B11: Example 611 (peptide)
chain: YXQGTXTSDXSILLDKKAQXAFIEYLEEGGPSSGAPPPSGEEE
modifications: non-natural residues; Lys acylated C18 diacid; C-terminal amide; synthetic construct; SITE 2: note = 2-Aminoisobutyric Acid; SITE 6: note = alpha-methyl-2-fluoro-L-phenylalanine; SITE 10: note = 3-(4-Pyridyl)-L-alanine; SITE 17: note = Lysine is chemically modified through conjugation of the epsilon-amino group of the Lysine side chain with (gamma-Glu)2-CO-(CH2)1
B12: Example 622 (peptide)
chain: YXQGTXTSDXSIXLDKKAQXAFIEYLEEGGPSSGAPPPSGTGE
modifications: non-natural residues; (γGlu)2-C18 diacid acyl; C-terminal amide; synthetic construct; SITE 2: note = 2-Aminoisobutyric Acid; SITE 6: note = alpha-methyl-2-fluoro-L-phenylalanine; SITE 10: note = 3-(4-Pyridyl)-L-alanine; SITE 13: note = alpha-methyl-leucine; SITE 17: note = Lysine is chemically modified through conjugation of the epsilon-amino group of the Lysine
B13: Example 632 (peptide)
chain: YXQGTXTSDXSIXLDKKAQXAFIEYLSEGGPSSGEPPPSGSEE
modifications: Aib, αMeF(2F), 4Pal, αMeL, acylated K, C-terminal amide; synthetic construct; SITE 2: note = 2-Aminoisobutyric Acid; SITE 6: note = alpha-methyl-2-fluoro-L-phenylalanine; SITE 10: note = 3-(4-Pyridyl)-L-alanine; SITE 13: note = alpha-methyl-leucine; SITE 17: note = Lysine is chemically modified through conjugation of the epsilon-amino group of the Lysine

Tests used:
Test in all cases: cell-based or functional assay
hGLP-1R = hGLP-1R (Homo sapiens, UniProt P43220)
[1] = biological target: T1, human GIP receptor (human) (UniProt P48546)
T1 sequence (looked up): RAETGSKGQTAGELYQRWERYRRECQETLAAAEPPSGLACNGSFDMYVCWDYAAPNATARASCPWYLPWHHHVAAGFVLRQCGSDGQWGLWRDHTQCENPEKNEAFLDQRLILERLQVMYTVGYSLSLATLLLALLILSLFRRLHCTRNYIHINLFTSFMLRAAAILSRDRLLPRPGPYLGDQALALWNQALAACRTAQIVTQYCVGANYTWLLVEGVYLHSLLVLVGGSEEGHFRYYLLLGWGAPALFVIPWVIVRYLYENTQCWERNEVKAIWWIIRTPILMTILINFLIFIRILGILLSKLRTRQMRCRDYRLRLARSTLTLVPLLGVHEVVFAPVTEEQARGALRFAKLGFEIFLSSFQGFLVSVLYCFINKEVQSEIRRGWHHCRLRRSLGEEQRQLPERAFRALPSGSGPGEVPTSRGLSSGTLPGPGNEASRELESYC

[2] = biological target: human glucagon receptor (human) (UniProt P47871)
Sequence of human glucagon receptor (human) (P47871 26-477): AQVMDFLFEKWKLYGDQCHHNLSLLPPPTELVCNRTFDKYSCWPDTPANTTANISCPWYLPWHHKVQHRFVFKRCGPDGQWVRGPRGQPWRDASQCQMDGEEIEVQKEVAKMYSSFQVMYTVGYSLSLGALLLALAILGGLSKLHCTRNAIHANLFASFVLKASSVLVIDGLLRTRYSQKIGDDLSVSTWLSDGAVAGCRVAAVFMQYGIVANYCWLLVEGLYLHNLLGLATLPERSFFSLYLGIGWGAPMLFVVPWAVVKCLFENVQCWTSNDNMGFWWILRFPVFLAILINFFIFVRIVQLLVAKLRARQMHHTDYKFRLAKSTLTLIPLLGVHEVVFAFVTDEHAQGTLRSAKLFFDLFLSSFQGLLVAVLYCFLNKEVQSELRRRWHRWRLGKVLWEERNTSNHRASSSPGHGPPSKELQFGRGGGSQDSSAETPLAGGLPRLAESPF

Sequence of hGLP-1R (P43220 24-463): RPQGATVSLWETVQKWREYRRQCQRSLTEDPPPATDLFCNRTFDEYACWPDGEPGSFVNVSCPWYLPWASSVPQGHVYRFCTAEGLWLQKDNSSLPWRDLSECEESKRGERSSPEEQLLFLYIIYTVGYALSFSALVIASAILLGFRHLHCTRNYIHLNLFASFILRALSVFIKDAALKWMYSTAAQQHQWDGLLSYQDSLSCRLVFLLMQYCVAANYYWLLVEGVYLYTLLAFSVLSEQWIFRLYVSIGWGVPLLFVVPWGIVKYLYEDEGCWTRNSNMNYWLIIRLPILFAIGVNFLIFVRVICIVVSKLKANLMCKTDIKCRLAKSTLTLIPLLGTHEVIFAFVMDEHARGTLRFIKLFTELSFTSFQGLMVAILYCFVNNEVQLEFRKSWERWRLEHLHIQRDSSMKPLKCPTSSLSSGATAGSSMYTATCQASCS

Binder	Relative cAMP EC50 (hGLP-1R) [nM]	cAMP Rel EC50, nM (in the presence of 1% HSA) (hGLP-1R) [nM]	Relative cAMP EC50 [1] [nM]	cAMP Rel EC50, nM (in the presence of 1% HSA) [1] [nM]	Relative cAMP EC50 [2] [nM]	cAMP Rel EC50, nM (in the presence of 1% HSA) [2] [nM]	cAMP Rel EC50 (in the presence of 1% HSA) (hGLP-1R) [nM]	cAMP Rel EC50 (in the presence of 1% HSA) [1] [nM]	cAMP Rel EC50 (in the presence of 1% HSA) [2] [nM]
B1	4.8	1370	0.54	166	6.57	2160	–	–	–
B2	1.15	–	0.0879	–	8.91	–	139	6.63	565
B3	0.907	–	0.0224	–	7.94	–	62.2	1.48	832
B4	1.21	–	0.087	–	7.13	–	126	7.58	640
B5	0.889	–	0.0192	–	8.72	–	60.8	1.75	546
B6	0.658	–	0.0375	–	16.8	–	55	3.92	1250
B7	0.981	–	0.0706	–	8.26	–	90.7	5.96	665
B8	1.66	–	0.133	–	5.75	–	130	7.02	536
B9	0.421	–	0.0186	–	10.2	–	41.2	1.63	1500
B10	0.762	–	0.0233	–	8.07	–	74.5	2.96	872
B11	1.63	–	0.126	–	6.8	–	146	7.35	627
B12	0.776	–	0.0148	–	7.7	–	52.3	1.19	641
B13	0.951	–	0.068	–	13.5	–	88.2	5.48	1600
